Experiments:
AncSZ = experiment: phosphorylation enrichment, bacterial display (enrichment ratio); higher = better substrate or ligand; peptides without Tyr show the background
EPHB1 = EPHB1 (UniProt P54762); experiment: as above
EPHB2 = EPHB2 (UniProt P29323); experiment: as above
FGFR1 = FGFR1 (UniProt P11362); experiment: as above
FGFR3 = FGFR3 (UniProt P22607); experiment: as above
Fer (mouse) = experiment: as above
Fes = Fes (UniProt P07332); experiment: as above
Fyn = Fyn (UniProt P06241); experiment: as above
Hck = Hck (UniProt P08631); experiment: as above
Jak2 = Jak2 (UniProt O60674); experiment: as above
MERTK = MERTK (UniProt Q12866); experiment: as above
c-Abl (mouse) = experiment: as above
c-Src = experiment: as above
Grb2 SH2 = Grb2 SH2 (UniProt P62993); experiment: SH2 binding enrichment of the phosphorylated peptide, bacterial display (enrichment ratio); higher = better substrate or ligand; peptides without Tyr show the background
SHP2-C SH2 = experiment: as above
c-Src SH2 = experiment: as above
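Throughout, for SH2 binding enrichment of the phosphorylated peptide, bacterial display: peptide library displayed on the E. coli surface as eCPX fusions, selected cells deep-sequenced, score is each peptide's frequency after selection divided by its frequency in the input.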
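Throughout, for phosphorylation enrichment, bacterial display: 11-residue human phosphosite peptides and single-mutation variants displayed on the E. coli surface, counted by deep sequencing, each peptide's frequency after selection divided by its frequency in the unselected input library; frequency after pTyr selection over input frequency; kinase dosed for 20-30% of maximal phosphorylation in three min.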

Grb2 SH2, sequence (P62993 whole entry, looked up): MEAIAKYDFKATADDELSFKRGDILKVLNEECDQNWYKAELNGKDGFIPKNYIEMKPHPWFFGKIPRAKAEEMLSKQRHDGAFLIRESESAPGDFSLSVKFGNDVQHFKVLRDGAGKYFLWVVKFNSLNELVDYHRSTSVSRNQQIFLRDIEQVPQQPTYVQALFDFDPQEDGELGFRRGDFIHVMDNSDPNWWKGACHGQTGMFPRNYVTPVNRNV
FGFR1, sequence (P11362 whole entry, looked up): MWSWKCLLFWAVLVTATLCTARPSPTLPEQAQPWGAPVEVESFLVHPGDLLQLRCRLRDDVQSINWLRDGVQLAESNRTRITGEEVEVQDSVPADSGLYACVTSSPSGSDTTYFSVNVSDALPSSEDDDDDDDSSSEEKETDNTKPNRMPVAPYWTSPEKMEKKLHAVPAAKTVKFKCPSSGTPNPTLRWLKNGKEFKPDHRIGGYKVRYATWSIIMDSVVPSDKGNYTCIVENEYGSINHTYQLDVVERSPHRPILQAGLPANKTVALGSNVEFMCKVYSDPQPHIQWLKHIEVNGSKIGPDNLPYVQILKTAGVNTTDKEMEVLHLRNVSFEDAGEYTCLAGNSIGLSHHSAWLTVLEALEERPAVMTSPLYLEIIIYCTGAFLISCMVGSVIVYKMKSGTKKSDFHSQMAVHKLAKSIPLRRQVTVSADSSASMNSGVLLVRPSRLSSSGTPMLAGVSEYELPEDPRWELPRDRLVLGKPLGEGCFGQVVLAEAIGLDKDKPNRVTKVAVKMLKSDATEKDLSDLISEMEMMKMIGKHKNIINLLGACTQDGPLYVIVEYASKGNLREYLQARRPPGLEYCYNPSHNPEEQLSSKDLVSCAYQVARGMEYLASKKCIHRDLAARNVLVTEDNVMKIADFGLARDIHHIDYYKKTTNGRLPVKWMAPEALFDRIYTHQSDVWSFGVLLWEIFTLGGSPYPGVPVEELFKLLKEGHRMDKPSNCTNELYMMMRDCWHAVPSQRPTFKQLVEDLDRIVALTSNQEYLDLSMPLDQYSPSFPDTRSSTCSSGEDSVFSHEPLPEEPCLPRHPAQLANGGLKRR
Fyn, sequence (P06241 whole entry, looked up): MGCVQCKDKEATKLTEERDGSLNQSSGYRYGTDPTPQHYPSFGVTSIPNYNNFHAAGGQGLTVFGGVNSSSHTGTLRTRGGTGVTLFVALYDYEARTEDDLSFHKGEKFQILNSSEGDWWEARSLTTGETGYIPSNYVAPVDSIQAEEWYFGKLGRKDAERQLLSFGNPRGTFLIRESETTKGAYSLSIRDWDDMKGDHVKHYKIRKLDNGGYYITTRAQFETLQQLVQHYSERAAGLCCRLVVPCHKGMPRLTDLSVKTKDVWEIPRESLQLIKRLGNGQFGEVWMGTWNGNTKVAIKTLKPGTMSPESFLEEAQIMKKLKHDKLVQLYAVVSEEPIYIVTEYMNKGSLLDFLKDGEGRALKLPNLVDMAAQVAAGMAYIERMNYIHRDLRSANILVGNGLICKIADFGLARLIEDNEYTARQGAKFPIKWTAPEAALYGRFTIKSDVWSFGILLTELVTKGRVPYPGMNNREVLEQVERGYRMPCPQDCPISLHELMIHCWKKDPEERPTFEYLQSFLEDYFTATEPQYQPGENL
EPHB1, sequence (P54762 whole entry, looked up): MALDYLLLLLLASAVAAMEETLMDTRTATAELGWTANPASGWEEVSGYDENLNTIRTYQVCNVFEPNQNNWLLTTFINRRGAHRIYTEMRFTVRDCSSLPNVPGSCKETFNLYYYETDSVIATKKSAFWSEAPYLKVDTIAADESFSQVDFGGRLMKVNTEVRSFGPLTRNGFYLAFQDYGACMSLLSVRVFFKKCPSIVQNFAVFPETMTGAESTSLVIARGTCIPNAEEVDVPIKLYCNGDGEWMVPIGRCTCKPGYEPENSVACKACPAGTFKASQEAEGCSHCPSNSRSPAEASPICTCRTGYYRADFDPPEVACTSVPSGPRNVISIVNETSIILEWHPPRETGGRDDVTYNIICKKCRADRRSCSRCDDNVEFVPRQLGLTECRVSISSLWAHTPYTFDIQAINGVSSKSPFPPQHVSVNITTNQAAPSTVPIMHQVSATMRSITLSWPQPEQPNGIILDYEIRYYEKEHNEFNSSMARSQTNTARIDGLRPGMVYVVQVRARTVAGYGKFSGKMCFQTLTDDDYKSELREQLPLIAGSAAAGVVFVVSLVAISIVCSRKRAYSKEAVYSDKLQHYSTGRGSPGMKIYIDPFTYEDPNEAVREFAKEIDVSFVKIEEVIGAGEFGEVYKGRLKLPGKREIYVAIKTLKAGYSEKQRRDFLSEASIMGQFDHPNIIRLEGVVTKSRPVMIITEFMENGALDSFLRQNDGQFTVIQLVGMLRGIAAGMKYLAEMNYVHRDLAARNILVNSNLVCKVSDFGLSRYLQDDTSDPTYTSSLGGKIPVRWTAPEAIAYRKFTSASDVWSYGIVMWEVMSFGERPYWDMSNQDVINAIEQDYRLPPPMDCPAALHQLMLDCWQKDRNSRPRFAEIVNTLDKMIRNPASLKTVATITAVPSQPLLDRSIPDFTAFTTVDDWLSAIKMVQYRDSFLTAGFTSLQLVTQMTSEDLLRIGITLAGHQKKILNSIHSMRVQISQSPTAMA
Fes, sequence (P07332 whole entry, looked up): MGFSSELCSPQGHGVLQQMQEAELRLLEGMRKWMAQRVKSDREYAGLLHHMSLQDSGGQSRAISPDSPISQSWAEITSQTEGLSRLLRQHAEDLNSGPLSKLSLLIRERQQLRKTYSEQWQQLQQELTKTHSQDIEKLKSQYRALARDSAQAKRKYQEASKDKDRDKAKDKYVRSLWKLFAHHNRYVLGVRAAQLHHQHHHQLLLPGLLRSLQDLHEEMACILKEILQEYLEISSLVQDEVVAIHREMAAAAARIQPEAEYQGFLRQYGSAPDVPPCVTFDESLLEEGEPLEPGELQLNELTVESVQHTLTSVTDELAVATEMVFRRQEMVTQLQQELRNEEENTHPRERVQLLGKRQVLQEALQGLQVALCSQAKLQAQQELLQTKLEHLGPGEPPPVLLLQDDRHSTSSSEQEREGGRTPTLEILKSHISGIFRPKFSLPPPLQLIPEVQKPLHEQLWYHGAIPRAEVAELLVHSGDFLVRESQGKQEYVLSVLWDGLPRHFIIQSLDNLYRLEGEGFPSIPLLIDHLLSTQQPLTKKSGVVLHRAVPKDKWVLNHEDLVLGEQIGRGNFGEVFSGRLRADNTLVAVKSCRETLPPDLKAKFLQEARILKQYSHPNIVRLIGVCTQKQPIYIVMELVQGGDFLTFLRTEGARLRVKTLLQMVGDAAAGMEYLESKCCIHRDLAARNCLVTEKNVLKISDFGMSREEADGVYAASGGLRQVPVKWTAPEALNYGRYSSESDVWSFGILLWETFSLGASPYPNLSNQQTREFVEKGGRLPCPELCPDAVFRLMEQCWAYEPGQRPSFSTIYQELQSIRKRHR
Hck, sequence (P08631 whole entry, looked up): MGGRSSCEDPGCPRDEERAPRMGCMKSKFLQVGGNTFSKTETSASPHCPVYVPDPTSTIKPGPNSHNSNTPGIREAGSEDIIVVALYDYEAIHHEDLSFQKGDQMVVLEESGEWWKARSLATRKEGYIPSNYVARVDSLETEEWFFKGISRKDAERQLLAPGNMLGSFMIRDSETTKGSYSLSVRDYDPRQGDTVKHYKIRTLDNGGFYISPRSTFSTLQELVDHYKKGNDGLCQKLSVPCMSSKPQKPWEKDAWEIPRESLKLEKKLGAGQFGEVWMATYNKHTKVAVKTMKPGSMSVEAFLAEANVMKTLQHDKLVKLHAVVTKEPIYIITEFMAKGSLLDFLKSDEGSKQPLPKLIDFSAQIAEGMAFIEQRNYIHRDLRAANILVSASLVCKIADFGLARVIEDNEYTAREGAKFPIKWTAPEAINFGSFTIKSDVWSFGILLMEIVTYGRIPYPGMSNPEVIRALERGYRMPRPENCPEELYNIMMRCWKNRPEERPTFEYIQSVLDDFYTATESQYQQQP
FGFR3, sequence (P22607 whole entry, looked up): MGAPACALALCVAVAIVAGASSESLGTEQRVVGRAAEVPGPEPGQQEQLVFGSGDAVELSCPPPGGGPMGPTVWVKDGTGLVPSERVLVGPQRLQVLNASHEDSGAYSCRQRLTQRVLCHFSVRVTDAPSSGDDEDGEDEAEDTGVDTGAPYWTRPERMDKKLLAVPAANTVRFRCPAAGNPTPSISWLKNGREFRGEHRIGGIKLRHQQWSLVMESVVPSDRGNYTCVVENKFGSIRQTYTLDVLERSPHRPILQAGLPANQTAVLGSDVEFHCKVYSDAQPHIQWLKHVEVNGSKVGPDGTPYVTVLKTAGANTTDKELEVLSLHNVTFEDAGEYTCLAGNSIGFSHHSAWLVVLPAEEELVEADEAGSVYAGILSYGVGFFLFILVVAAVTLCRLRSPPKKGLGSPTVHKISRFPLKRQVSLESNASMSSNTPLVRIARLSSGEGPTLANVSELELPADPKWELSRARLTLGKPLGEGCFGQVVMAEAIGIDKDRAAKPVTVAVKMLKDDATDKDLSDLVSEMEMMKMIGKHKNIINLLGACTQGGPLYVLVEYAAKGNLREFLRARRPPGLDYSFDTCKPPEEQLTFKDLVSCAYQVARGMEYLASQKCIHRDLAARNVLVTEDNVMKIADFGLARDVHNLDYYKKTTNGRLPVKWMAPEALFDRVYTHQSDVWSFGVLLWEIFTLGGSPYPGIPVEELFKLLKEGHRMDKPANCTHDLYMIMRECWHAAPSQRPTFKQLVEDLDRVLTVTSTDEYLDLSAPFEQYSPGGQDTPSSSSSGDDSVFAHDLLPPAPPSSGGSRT

Sequence	phosphorylation enrichment (AncSZ)	phosphorylation enrichment (EPHB1)	phosphorylation enrichment (EPHB2)	phosphorylation enrichment (FGFR1)	phosphorylation enrichment (FGFR3)	phosphorylation enrichment (Fer (mouse))	phosphorylation enrichment (Fes)	phosphorylation enrichment (Fyn)	phosphorylation enrichment (Hck)	phosphorylation enrichment (Jak2)	phosphorylation enrichment (MERTK)	phosphorylation enrichment (c-Abl (mouse))	phosphorylation enrichment (c-Src)	SH2 binding enrichment (Grb2 SH2)	SH2 binding enrichment (SHP2-C SH2)	SH2 binding enrichment (c-Src SH2)
PLDVEYFTLQI [TP53_Y327_G325V]	2.47	0.804	0.659	7.84	5.88	0.578	1.46	2.35	1.2	2.69	0.55	1.11	2.72	0.743	0.604	0.309
PLLEYYWDIFT [CDAN1_Y713_R714W]	2.64	2.64	1.28	8.76	7.06	0.906	2.27	1.32	0.79	2.65	1.02	1.61	1.19	1.25	1.25	0.959
PLLLSYFLIKW [NUP160_Y773_YF]	1.37	0.909	0.622	1.53	1.73	0.37	1.8	0.561	0.761	3.01	0.558	1.33	0.684	1.13	1.04	0.662
PLRANYLIARV [HLCS_Y635_D634N]	0.927	1.12	0.861	0.707	0.853	0.7	1.12	0.769	0.763	1.27	0.716	2.74	1.01	1.27	1.29	0.992
PLYRKYWPNHI [GREB1L_Y1560]	1.48	0.813	0.645	1.15	1.07	0.84	1.34	1.07	1.11	0.95	0.708	1.05	0.882	1.09	1.24	0.822
PPTFRYERGSR [INPPL1_Y663_YF]	0.974	0.503	0.579	0.803	0.69	0.546	0.822	0.671	0.622	0.692	0.753	0.704	0.521	0.503	0.318	0.336
PQEVTYAQLDH [KIR3DL2_Y398]	2.44	1.3	1.33	3.41	2.12	3.3	2.64	9.11	10.7	2.87	3.38	4.39	13.6	0.873	8.91	1.25
PQGVRYIFTID [DCX_Y103_YF]	1.68	0.587	0.524	0.61	0.96	0.826	3.66	0.617	0.714	1.89	0.664	1.38	0.587	0.602	1.09	0.654
PRARTYCYKQE [KLHDC9_Y175_S171R]	0.847	0.467	0.574	0.497	0.557	0.716	1.01	0.527	0.435	0.981	0.483	0.91	0.667	1.27	0.834	0.661
PRQRRYVFFFS [PTEN_Y174_S170R_YF]	0.739	0.606	0.343	0.62	0.715	0.555	0.605	0.575	0.446	0.262	0.574	0.385	0.597	0.861	0.453	0.453
PSELFYSKIGP [SMG1_Y2254_YF]	1.21	2.31	2.08	5.34	3.84	10.4	1.2	3.97	10.6	2.1	15.5	2.46	5.2	1.03	2.31	4.64
PSSNLYFRCLT [CNGA3_Y168_W171C_YF]	1.5	0.828	0.809	1.19	1.03	0.694	1.63	0.707	0.88	1.66	0.808	0.967	0.48	0.75	0.636	0.379
PSSNLYYRCLT [CNGA3_Y168_W171C]	1.68	1.23	0.78	1.9	1.87	0.655	1.06	0.883	1.89	2.31	3.88	0.742	1.05	0.936	0.629	0.484
PSSRDYKDNIK [PIGN_Y227_H229D]	0.556	0.595	0.467	0.614	0.614	0.407	0.649	0.496	0.381	0.9	0.727	0.47	0.569	1.16	0.449	0.394
PVDNLYAEPAV [PRPS1_Y146]	2.52	5.2	9.31	0.61	0.986	4.64	1.31	1.96	3.99	1.02	6.34	8.54	1.56	1.04	0.63	0.671
PVQAADQKVVA [HBB_Y131_Y131D]	0.918	0.508	0.718	0.654	0.816	0.482	1.18	0.62	0.576	0.893	0.593	0.781	0.605	0.731	0.733	0.388
PVQAAYQNVVA [HBB_Y131_K133N]	0.931	0.915	0.567	0.699	0.692	0.98	0.877	0.644	0.536	0.645	0.591	0.591	0.49	34.4	1.49	3.07

Sequence	phosphorylation enrichment (AncSZ)	phosphorylation enrichment (EPHB1)	phosphorylation enrichment (EPHB2)	phosphorylation enrichment (FGFR1)	phosphorylation enrichment (FGFR3)	phosphorylation enrichment (Fer (mouse))	phosphorylation enrichment (Fes)	phosphorylation enrichment (Fyn)	phosphorylation enrichment (Hck)	phosphorylation enrichment (Jak2)	phosphorylation enrichment (MERTK)	phosphorylation enrichment (c-Abl (mouse))	phosphorylation enrichment (c-Src)	SH2 binding enrichment (Grb2 SH2)	SH2 binding enrichment (SHP2-C SH2)	SH2 binding enrichment (c-Src SH2)
PVQAAYQQVVA [HBB_Y131_K133Q]	0.554	0.566	0.822	0.673	0.739	0.484	0.754	0.6	0.659	0.736	0.415	0.677	0.576	0.541	1.06	1.35
PVVKLYATEGR [RP1_Y199_D202E]	0.858	0.389	0.251	0.496	0.568	0.455	0.807	0.633	0.794	0.683	0.574	0.71	0.54	0.966	1.1	0.702
QAEEWYFGKMG [YES1_Y159]	1.28	0.498	0.48	1.17	1.07	0.603	1.13	0.773	0.847	1.44	0.439	1.05	0.787	0.942	1.09	0.359
QCTSHYPEHVC [SART3_Y541_D540H]	1.03	0.458	0.747	0.727	0.677	0.393	0.991	0.666	0.633	0.766	0.417	0.585	0.34	0.966	0.795	0.699
QDEHGYISRCF [HSPB1_Y133]	1.23	0.718	0.923	0.555	0.792	0.601	1.19	0.741	0.838	0.965	0.396	0.861	0.418	0.662	0.763	0.445
QDRDLYPCPGT [RLF_Y671]	1.05	0.71	0.693	0.484	0.878	0.687	1.37	0.936	0.429	1.1	0.751	0.863	0.613	1.11	0.717	0.644
QEIATCRRLLE [KRT14_Y415_Y415C]	0.896	0.412	0.502	0.634	0.508	0.337	0.928	0.352	0.635	0.643	0.407	0.641	0.372	0.908	0.469	0.704
QEIATYRRQLE [KRT14_Y415_L418Q]	1.11	0.75	1.27	0.65	0.808	0.601	1.01	0.83	0.559	0.976	0.445	0.773	0.583	0.768	0.332	0.593
QFFQGYFNNNF [ZNF236_Y644_S643G]	1.15	0.545	0.496	0.643	0.845	0.356	1.2	0.42	0.574	1.55	0.58	1.23	0.721	1.63	1.51	1.28
QFLMMYVWSAS [ABCD1_Y337_K336M]	1.53	0.873	0.931	0.426	1.22	0.807	1.58	0.465	0.912	1.46	0.541	1.27	0.779	0.929	1.03	0.543
QFQEKYKQMEQ [HCN4_Y531_V534M_YF]	1.24	0.608	0.576	0.654	1.05	0.502	1.87	0.93	1.53	1.36	0.554	0.976	0.366	0.844	0.956	0.472
QGFDTYFGFLL [ARSB_Y165_R160Q_YF]	3.29	4.39	7.17	6.18	5.31	8.02	2.08	11.4	8.45	4.81	6.29	1.33	7.09	0.717	0.724	0.345
QGLMPYGQPRP [SRRT_Y798]	0.853	0.568	0.513	0.696	0.527	0.424	0.863	0.488	0.563	0.601	0.596	0.725	0.883	0.955	0.653	0.357
QITQVYGFFHE [PPP2CA_Y127_D131H_YF]	1.67	0.788	1.11	0.647	1.26	0.72	1.39	17.8	14.3	0.915	5.31	1.14	9.89	1.03	0.646	0.745
QKFMAYLSQGG [HLCS_Y236]	0.839	0.731	0.803	0.466	0.64	0.487	0.745	1.2	0.738	0.945	0.517	0.446	0.542	1.23	1.17	0.877
QKMADYSNKLF [PDPR_Y104_YF]	1.16	0.662	0.647	0.741	0.586	0.362	1.41	0.683	0.554	1.41	0.788	1.26	0.81	1.03	0.945	0.385

From the supplement of paper PMC10065799, “High-throughput profiling of sequence recognition by tyrosine kinases and SH2 domains using bacterial peptide display” (eLife, 2023)
